In patent US20230037815A1 (CULLINAN THERAPEUTICS, published 2023):

T1: human CD19 (human, UniProt P15391 20-291, biotinylated in the Biacore assay of Table 11)
T1 construct: also called isolated CD19; Human CD19 Protein
T1 sequence (looked up): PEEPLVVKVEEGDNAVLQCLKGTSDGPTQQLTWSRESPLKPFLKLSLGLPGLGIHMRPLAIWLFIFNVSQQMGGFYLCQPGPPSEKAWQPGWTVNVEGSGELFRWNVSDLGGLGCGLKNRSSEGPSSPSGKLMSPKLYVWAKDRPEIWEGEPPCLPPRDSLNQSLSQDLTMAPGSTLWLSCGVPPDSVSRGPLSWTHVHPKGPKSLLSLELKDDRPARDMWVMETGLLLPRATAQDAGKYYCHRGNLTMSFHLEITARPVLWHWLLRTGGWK

T2: monomeric CD19 extracellular domain (UniProt P15391 20-291, limits assumed)
T2 construct: extracellular domain; also called monomeric CD19 protein
T2 sequence (looked up): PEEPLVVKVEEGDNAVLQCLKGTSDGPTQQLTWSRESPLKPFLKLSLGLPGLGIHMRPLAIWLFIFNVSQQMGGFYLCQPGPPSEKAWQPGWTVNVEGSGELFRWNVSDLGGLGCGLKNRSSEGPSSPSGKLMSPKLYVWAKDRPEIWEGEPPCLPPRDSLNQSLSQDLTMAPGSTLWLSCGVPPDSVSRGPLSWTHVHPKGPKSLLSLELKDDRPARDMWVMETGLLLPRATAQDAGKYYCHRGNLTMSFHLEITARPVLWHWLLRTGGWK

T3: dimeric CD19 extracellular domain fused with human IgG1 Fc (human, UniProt P15391 20-291, limits assumed)
T3 construct: extracellular domain; also called dimeric CD19 protein; not shown: human IgG1 Fc
T3 sequence (looked up): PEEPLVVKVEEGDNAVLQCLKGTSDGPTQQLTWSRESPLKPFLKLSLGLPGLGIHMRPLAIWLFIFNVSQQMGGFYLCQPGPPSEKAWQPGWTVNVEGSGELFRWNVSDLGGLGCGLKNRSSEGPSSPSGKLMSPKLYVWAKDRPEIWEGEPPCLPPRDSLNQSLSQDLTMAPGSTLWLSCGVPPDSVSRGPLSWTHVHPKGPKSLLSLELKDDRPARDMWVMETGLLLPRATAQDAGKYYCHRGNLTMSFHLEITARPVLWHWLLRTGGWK


Experiments:
human CD19 [1] = target: T1, human CD19; assay: SPR Biacore 8K, captured biotinylated CD19, scFv analyte
Protocol: (§1) Additional kinetic analysis of the anti-CD19 VL-VH scFvs, with or without a disulfide bond introduced by Cys substitutions at position 44 of VH and position 100 of VL, was conducted by surface plasmon resonance (SPR). The scFv proteins were serially diluted and assessed at 25° C. in a HBS-EP+ running buffer system (10 mM HEPES pH 7.4, 150 mM NaCl, 3 mM EDTA, 0.05% Surfactant P20) using a Biacore 8K optical biosensor (Global Life Sciences Solutions USA, Marlborough, Mass.). The sample compartment was maintained at 10° C. for the duration of each experiment.
(§2) Each experiment cycle began with an injection (500 s at 2 μL/min) over flow cells 1 and 2 of a 1:20 solution of biotin CAPture reagent (Global Life Sciences Solutions USA) in running buffer. This was followed by an injection (300 s at 4.0 μL/min) of biotinylated CD-19 (40 nM) overflow cell 2. Upon capture of CD19 to the sensor surface, test scFvs (16.2 to 0.067 nM, 3-fold dilution in running buffer) was injected (300 s at 30 uL/min) over flow cells 1 and 2. The dissociation of the scFvs was monitored for a duration of 2564 s. Finally, an injection (90 s at 10 μL/min) of regeneration solution (6 M Guanidine-HCl in 0.25 M NaOH) overflow cells 1 and 2 was used to prepare the sensor surface for another cycle.

human CD19 [2] = target: T1, human CD19; assay: SPR Biacore 8K, captured biotinylated CD19, scFv with disulfide bond as analyte
Protocol: as §1, §2

human CD3 [3] = target: human CD3 (human); assay: BLI, Octet method of WO2018208864A1
human CD3 [4] = target: human CD3 (human); assay: SPR, BiaCore method of WO2018208864A1
[5] = target: T2, monomeric CD19 extracellular domain; assay: ForteBio instrument (called SPR in the text), monomeric CD19 extracellular domain; monomeric CD19 protein
Protocol: (§3) As noted above, some of the constructs produced contained an anti-CD19 scFv having the amino acid sequence set forth in SEQ ID NO: 9 or 18. The binding affinity of the two CD19 binding domains to CD19 were measured by SPR using a monomeric CD19 extracellular domain and a dimeric CD19 extracellular domain fused with human IgG1 Fc. Binding kinetic parameters were measured using a ForteBio instrument generally as previously described (see, Estep et al. (2013) MAbs, 5(2): 270-78).

[6] = target: T3, dimeric CD19 extracellular domain fused …; assay: ForteBio instrument (called SPR in the text), dimeric CD19 extracellular domain-human IgG1 Fc; dimeric CD19 extracellular domain fused with human IgG1 Fc
Protocol: as §3

human CD3 (human), sequence (chain, as listed by the source): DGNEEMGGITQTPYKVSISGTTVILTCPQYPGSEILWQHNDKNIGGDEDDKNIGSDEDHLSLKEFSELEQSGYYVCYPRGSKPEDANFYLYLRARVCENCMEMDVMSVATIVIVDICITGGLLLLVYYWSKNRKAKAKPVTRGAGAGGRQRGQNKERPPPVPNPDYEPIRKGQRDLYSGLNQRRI

Kd (human CD19 [1]) [nM] | koff (human CD19 [1]) [s⁻¹] | Kd (human CD19 [2]) [nM] | koff (human CD19 [2]) [s⁻¹] | Binder | further results
0.0122 | 2e-05 |  |  | CNG-CD19-707 VL-VH scFv (scFv) scFv: EIVLTQSPATLSLSPGERATLSCSASSSVGYMHWYQQKPGQAPRLLIYDTSKLASGIPARFSGSGSGTDFTLTISSLEPEDFAVYYCFQGSVYPFTFGQGTKLEIKGGGGSGGGGSGGGGSQVQLQESGPGLVKPSQTLSLTCTVSGGSISTSTMGVGWIRQHPGKGLEWIGFIWWDDDKRYNPNLKSRVTMSVDTSKNQFSLKLSSVTAADTAVYYCARMELWSYYFDPWGQGTLVTVSS | 
 |  | 0.0213 | 2.54e-05 | CNG-CD19-710 VL-VH scFv with disulfide bond (scFv) EIVLTQSPATLSLSPGERATLSCSASSSFSYMHWYQQKPGQAPRLLIYDTSKLASGIPARFSGSGSGTDFTLTISSLEPEDFAVYYCFQGSVYPFTFGCGTKLEIKGGGGSGGGGSGGGGSQVQLQESGPGLVKPSQTLSLTCTVSGVSISTSSMGVGWIRQHPGKCLEWIGHAWWDDDKRYNPALKSRVTISVDTSKNQFSLKLSSVTAADTAVYYCARMELWSYYFDPWGQGTLVTVSS | 
 |  | 0.0141 | 2e-05 | CNG-CD19-701 VL-VH scFv with disulfide bond (scFv) EIVLTQSPATLSLSPGERATLSCSASSSVGYMHWYQQKPGQAPRLLIYDTSKLASGIPARFSGSGSGTDFTLTISSLEPEDFAVYYCFQGSVYPFTFGCGTKLEIKGGGGSGGGGSGGGGSQVQLQESGPGLVKPSQTLSLTCTVSGGSISTSTMGVGWIRQHPGKCLEWIGFIWWDDDKRYNPNLKSRVTMSVDTSKNQFSLKLSSVTAADTAVYYCARMELWSYYFDYWGQGTLVTVSS | 
 |  | 0.0117 | 2e-05 | CNG-CD19-707 VL-VH scFv with disulfide bond (scFv) EIVLTQSPATLSLSPGERATLSCSASSSVGYMHWYQQKPGQAPRLLIYDTSKLASGIPARFSGSGSGTDFTLTISSLEPEDFAVYYCFQGSVYPFTFGCGTKLEIKGGGGSGGGGSGGGGSQVQLQESGPGLVKPSQTLSLTCTVSGGSISTSTMGVGWIRQHPGKCLEWIGFIWWDDDKRYNPNLKSRVTMSVDTSKNQFSLKLSSVTAADTAVYYCARMELWSYYFDPWGQGTLVTVSS | 
0.0148 | 2e-05 |  |  | CNG-CD19-701 VL-VH scFv (scFv) scFv: EIVLTQSPATLSLSPGERATLSCSASSSVGYMHWYQQKPGQAPRLLIYDTSKLASGIPARFSGSGSGTDFTLTISSLEPEDFAVYYCFQGSVYPFTFGQGTKLEIKGGGGSGGGGSGGGGSQVQLQESGPGLVKPSQTLSLTCTVSGGSISTSTMGVGWIRQHPGKGLEWIGFIWWDDDKRYNPNLKSRVTMSVDTSKNQFSLKLSSVTAADTAVYYCARMELWSYYFDYWGQGTLVTVSS | 
0.0218 | 2e-05 |  |  | CNG-CD19-710 VL-VH scFv (scFv) scFv: EIVLTQSPATLSLSPGERATLSCSASSSFSYMHWYQQKPGQAPRLLIYDTSKLASGIPARFSGSGSGTDFTLTISSLEPEDFAVYYCFQGSVYPFTFGQGTKLEIKGGGGSGGGGSGGGGSQVQLQESGPGLVKPSQTLSLTCTVSGVSISTSSMGVGWIRQHPGKGLEWIGHAWWDDDKRYNPALKSRVTISVDTSKNQFSLKLSSVTAADTAVYYCARMELWSYYFDPWGQGTLVTVSS | 
 |  |  |  | CNG-CD3-2 scFv construct (scFv) scFv: DIVMTQSPDSLAVSLGERATINCKSSQSLLNARTGKNYLAWYQQKPGQPPKLLIYWASTRESGVPDRFSGSGSGTDFTLTISSLQAEDVAVYYCKQSYSRRTFGGGTKVEIKGGGGSGGGGSGGGGSGGGGSQVQLVQSGAEVKKPGASVKVSCKASGFNIKDYYMHWVRQAPGQRLEWMGWIDLENANTIYDAKFQGRVTITRDTSASTAYMELSSLRSEDTAVYYCARDQYGRYFYDVWGQGTLVTVSS | Kd (human CD3 [3]): 27 nM; Kd (human CD3 [4]): 16 nM
 |  |  |  | CNG-CD3-3 scFv construct (scFv) scFv: DIVMTQSPDSLAVSLGERATINCKSSQSLLNARTGKNYLAWYQQKPGQPPKLLIYWASTRESGVPDRFSGSGSGTDFTLTISSLQAEDVAVYYCKQSYSLRTFGGGTKVEIKGGGGSGGGGSGGGGSGGGGSQVQLVQSGAEVKKPGASVKVSCKASGFNIKDYYMHWVRQAPGQRLEWMGWIDLEEGNTIYDAKFQGRVTITRDTSASTAYMELSSLRSEDTAVYYCARDAYGRYFYDVWGQGTLVTVSS | Kd (human CD3 [3]): 54 nM; Kd (human CD3 [4]): 26 nM
0.00673 | 2e-05 |  |  | CNG-CD19-101 VL-VH scFv (scFv, scFv without the engineered disulfide) scFv: DIVMTQTPLSLSVTPGQPASISCKSSQSLETTTGTTYLNWYLQKPGQSPQLLIYRASKRFSGVPDRFSGSGSGTDFTLKISRVEAEDVGVYYCLQLLEDPYTFGQGTKLEIKGGGGSGGGGSGGGGSQVQLVQSGAEVKKPGASVKVSCKASGYDFTDYIMHWVRQAPGQGLEWMGYINPYNDGSKYTDKFQERVTMTSDTSISTAYMELSRLRSDDTAVYYCARGTYYYGPELFDYWGQGTTVTVSS | 
 |  | 0.0178 | 4.85e-05 | CNG-CD19-103 VL-VH scFv with disulfide bond (scFv) DIVMTQTPLSLSVTPGQPASISCKSSQSLETATGTTYLNWYLQKPGQSPQLLIYRVSRRFSGVPDRFSGSGSGTDFTLKISRVEAEDVGVYYCLQLLEDPYSFGCGTKLEIKGGGGSGGGGSGGGGSQVQLVQSGAEVKKPGASVKVSCKASGYTFTDYIMHWVRQAPGQCLEWMGYINPYNDGSKYTEKFQGRVTMTSDTSISTAYMELSRLRSDDTAVYYCARGTYYYGPQLFDYWGQGTTVTVSS | 
 |  | 0.0139 | 4.88e-05 | CNG-CD19-101 VL-VH scFv with disulfide bond (scFv, Cys at position 44 of VH and 100 of VL already in the entry; also called scFv with Cys substitutions) scFv: DIVMTQTPLSLSVTPGQPASISCKSSQSLETTTGTTYLNWYLQKPGQSPQLLIYRASKRFSGVPDRFSGSGSGTDFTLKISRVEAEDVGVYYCLQLLEDPYTFGCGTKLEIKGGGGSGGGGSGGGGSQVQLVQSGAEVKKPGASVKVSCKASGYDFTDYIMHWVRQAPGQCLEWMGYINPYNDGSKYTDKFQERVTMTSDTSISTAYMELSRLRSDDTAVYYCARGTYYYGPELFDYWGQGTTVTVSS | 
0.00991 | 2.41e-05 |  |  | CNG-CD19-103 VL-VH scFv (scFv) scFv: DIVMTQTPLSLSVTPGQPASISCKSSQSLETATGTTYLNWYLQKPGQSPQLLIYRVSRRFSGVPDRFSGSGSGTDFTLKISRVEAEDVGVYYCLQLLEDPYSFGQGTKLEIKGGGGSGGGGSGGGGSQVQLVQSGAEVKKPGASVKVSCKASGYTFTDYIMHWVRQAPGQGLEWMGYINPYNDGSKYTEKFQGRVTMTSDTSISTAYMELSRLRSDDTAVYYCARGTYYYGPQLFDYWGQGTTVTVSS | 
 |  |  |  | SEQ ID NO 18 (scFv, its limits are my reading; also called anti-CD19 scFv of tAb0033 to tAb0038) scFv: QVQLQESGPGLVKPSQTLSLTCTVSGGSISTSGMGVGWIRQHPGKGLEWIGHIWWDDDKRYNPALKSRVTISVDTSKNQFSLKLSSVTAADTAVYYCARMELWSYYFDYWGQGTLVTVSSGGGGSGGGGSGGGGSEIVLTQSPATLSLSPGERATLSCSASSSVSYMHWYQQKPGQAPRLLIYDTSKLASGIPARFSGSGSGTDFTLTISSLEPEDFAVYYCFQGSVYPFTFGQGTKLEIKR | Kd [5]: 11 nM; Kd [6]: 15 nM
 |  |  |  | SEQ ID NO 9 (scFv, its limits are my reading; also called anti-CD19 scFv of tAb0027 to tAb0032) scFv: QVQLVQSGAEVKKPGASVKVSCKASGYTFTDYIMHWVRQAPGQGLEWMGYINPYNDGSKYTEKFQGRVTMTSDTSISTAYMELSRLRSDDTAVYYCARGTYYYGPQLFDYWGQGTTVTVSSGGGGSGGGGSGGGGSDIVMTQTPLSLSVTPGQPASISCKSSQSLETSTGTTYLNWYLQKPGQSPQLLIYRVSKRFSGVPDRFSGSGSGTDFTLKISRVEAEDVGVYYCLQLLEDPYTFGQGTKLEIK | Kd [5]: 7 nM; Kd [6]: 5 nM
